Assay: soluble on expression in E. coli; label from the status in PepcDB or PDB records

Q: For “MRLLIVLSALLIPCLAQLSEDSSELEFGGQQAQRPSPDGPLFPRFLMHVPRFARKEFFDIVSNDQLSQDQQNEQLTIWAKAFNVTDEFNAWTKKIQEQKEAVSKNVEAVASNITTVYTQLEEILSNSNLTRRDQHDQIRKLATTFPREVRALFFIARNYRPEGRSPIFGQGIGMGKKPQSSMVPFIFQQQQPPMMMFGQQPFMPAGPMMMNRFQQTGSQQNFQSRRGGRGDGPGFVPGTQDNNQRGSGERGQRQNFGPSDNLTNGNQFSKKQFARGPSSMNSDLSENSQHSDSNSQFDFPRGPGGRGGRGQGPDFGPGGQGGRGQGPDFGPQDDFPGRRGSGGPGGRGGRGQGPDFEPQDDFPGRRGSGGPGRRGGRGQGPDFGPQDDFPGRRGSGGPGGRGGRGQGPDFGPGRQGGRGQGPDFGPQDDFSGRRGSGGPGGRGGRGQEPDFGPGGQGGRGQGPDFGPQDDFPGRRGSGGPEGRDGRGQGPDFGPGSQGGRGQDSDSGSQDAFPGRRGSGGPGGRGQGPDFGPQDDFPGRRGSGGPEGRDGRGQGPDFGPGSQGGRGQDSDSGSQDAFPGRRGPGGPGGLGGRGQGPDFGPGGQGDRGQGPDFGARSQGNRGQGPAFESRQPRQFDDADTSSAPSQKYFQRQMNSGMRFDQSSGFGMRKSQSTQQNYENFAEN”, which “soluble on expression in E. coli” value is on record?
A: not soluble

Q: With “MNEILKCIGCGAPLQSENKDAPGYVPEHNMFREDVICRRCFRLKNYNEVQDVGMESEDFLNLLTGLSEKKGIIVNVVDVFDFEGSFINAIQRIVGNKKIILVANKIDLLPKQINHRRVKEWLRKSARKYGLEAEDVVLISANKGWGIDELLQSINHVRNKDDVYIVGTTNVGKSTLINKLIEQSVGEKDVVTTSRFPGTTLDMIDIPLDEKSFMFDTPGIIQSHQMTNYVSENELKIIIPKNEIKQRVYQLNEKQTLFFGGLARIDYVSGGKRPLVCFFSNDLNIHRTKTEKANDLWKSQLGALLSPPQDAQQFNLNDVKAVRLETGKTKRDIMISGLGFITIDAGAKVIVRVPKHVDVILRNSILLEHHHHHH” as the sequence, how does the “soluble on expression in E. coli” value read?
A: soluble

Q: With “INTVNLINQMKTLAAQAEGIKPDSGLNHASFSSVFQQALNQVNELSQTADSLKTRFEIGDPNVSLGEVMIASQKSNLGFEATLRVRNKLVQAYQDIMNMPV” as the sequence, how does the “soluble on expression in E. coli” value read?
A: not soluble

Q: Which “soluble on expression in E. coli” value does the source give for “MIELIDPISKQRLEESPEGLRNENGIVVYPLINGAYRVAASDNYTSNFGLEWNTFQKTQIDKFSGNTVSEERLFAQTNWQKNGLEGETILEVGSGAGRFSQIMLDHTKATLYSVDYSEAVEANYRNNGPHERFKLFQASIYELPFKQASFDRVICLGVLQHTPDFKASVKALVEMVKPGGELVIDFYPIRNVFTKVHGKYLLRPILKRVNHHRLMSLIRNNIDFLISIYTFNRRIGLGVFNRFVPICEIERTLPKGMTPEQLKEWIILDTFDMFSPEYDQPQRLSTVAKWVKEFGMADVDASWVTYHGKLEAPTVRGRKVLEHHHHHH” here?
A: soluble

Q: For “MGSDKIHHHHHHVLIWWRGKFRRADEISLDFSLFEKSLQGAVYETLRTYSRAPFAAYKHYTRLKRSADFFNLPLSLSFDEFTKVLKAGADEFKQEVRIKVYLFPDSGEVLFVFSPLNIPDLETGVEVKISNVRRIPDLSTPPALKITGRTDIVLARREIVDCYDVILLGLNGQVCEGSFSNVFLVKEGKLITPSLDSGILDGITRENVIKLAKSLEIPVEERVVWVWELFEADEMFLTHTSAGVVPVRRLNEHSFFEEEPGPVTATLMENFEPFVLNLEENWVGI”, which “soluble on expression in E. coli” value is on record?
A: soluble

Q: With “MVQKEGVLRVITRNSPATYFQDRNGETGFEYELAKRFAERLGVELKIETADNLDDLYAQLSREGGPALAAAGLTPGREDDASVRYSHTYLDVTPQIIYRNGQQRPTRPEDLVGKRIMVLKGSSHAEQLAELKKQYPELKYEESDAVEVVDLLRMVDVGDIDLTLVDSNELAMNQVYFPNVRVAFDFGEARGLAWALPGGDDDSLMNEVNAFLDQAKKEGLLQRLKDRYYGHVDVLGYVGAYTFAQHLQQRLPRYESHFKQSGKQLDTDWRLLAAIGYQESLWQPGATSKTGVRGLMMLTNRTAQAMGVSNRLDPKQSIQGGSKYFVQIRSELPESIKEPDRSWFALAAYNIGGAHLEDARKMAEKEGLNPNKWLDVKKMLPRLAQKQWYAKTRYGYARGGETVHFVQNVRRYYDILTWVTQPLEHHHHHH” as the sequence, how does the “soluble on expression in E. coli” value read?
A: soluble

Q: With “ASEKLRSKLMSADEAAQFVNHGDKVGFSGFTGAGYPKALPTAIANRAKEAHGAGNDYAIDLFTGASTAPDCDGVLAEADAIRWRMPYASDPIMRNKINSGSMGYSDIHLSHSGQQVEEGFFGQLNVAVIEITRITEEGYIIPSSSVGNNVEWLNAAEKVILEVNSWQSEDLEGMHDIWSVPALPNRIAVPINKPGDRIGKTYIEFDTDKVVAVVETNTADRNAPFKPVDDISKKIAGNFLDFLESEVAAGRLSYDGYIMQSGVGNVPNAVMAGLLESKFENIQAYTEVIQDGMVDLIDAGKMTVASATSFSLSPEYAEKMNNEAKRYRESIILRPQQISNHPEVIRRVGLIATNGLIEADIYGNVNSTNVSGSRVMNGIGGSGDFTRNGYISSFITPSEAKGGAISAIVPFASHIDHTEHDVMVVISEYGYADLRGLAPRERVAKMIGLAHPDYRPLLEEYYARATSGDNKYMQTPHDLATAFDFHINLAKNGSM” as the sequence, how does the “soluble on expression in E. coli” value read?
A: not soluble

Q: For “AHHHHHHGSEYTIVDGEEYIEEIKKLDREISYSFVRFPISYEEYEERHEELFESLLSQGEHKFFVALNERSELLGHVWICITLDTVDYVKIAYIYDIEVVKWARGLGIGSALLRKAEEWAKERGAKKIVLRVEIDNPAVKWYEERGYKARALIMEKPI”, which “soluble on expression in E. coli” value is on record?
A: soluble

Q: With “MAHHHHHHMLEFLVTTQPSRRIVCRNEATYIYFWPYLFSREVPGALQLCRWAARRGAAVHGAVRLQPSETPNAAHRCYLTVTRPVAAGRTLISLPAALSLSVSSPESRKGTFIGRYSALESFAQLLARELHNPRSPHRAYLEFLHDLHNSGTDEVSDALLAGLRYERAAVLVDQLDAMYAGNSLQARGAANAPFLDKEQLTSASQRVEWVRLHQLQRRLEQGVPHFAAKSTAWALSMALSRAMEDDAEGLSLYPLIDFCAHSFEPNAYICVGEDERIAATRPVRWADSSGEPLLHVVTRRLLHAGEKVTLRWHWRPVKTTEDAEFWQMRFGYVPQSE” as the sequence, how does the “soluble on expression in E. coli” value read?
A: not soluble

Q: Which “soluble on expression in E. coli” value does the source give for “MAYDLAVPGPIMQEVAQYLASLSGKAVVINIFAGHADRSLSQTQLAELLDKLLARHPGSAVILLDHRREIRIPLPPEVVINPFNTLHHAMALIAQAELIISPDTSVVHMAAAWNKPLIAVYKDVLLNNRLWAPGYDNARQIIVKCGKVHQHRGLVDRIIAALPETLLEHHHHHH” here?
A: not soluble

Q: With “MNQHNTRLIRLPEVLHRTGYGKAWIYHLINQNRFPSPVKIGARSVAFIESEVDEWIQLTIENSRKHVA” as the sequence, how does the “soluble on expression in E. coli” value read?
A: soluble

Q: With “MAHHHHHHMSGEKKEALKNDLPPIPGCDTDGQTYKSAEEMWAAELRGNLYDAETGWYGRSLQYWSKVPATVSGVLGGMEHIHDVDLKESRAFITSIPDRGTSRALDCGAGIGRVTKYLLSTLYTVTDLLEPVANMLEKAKEELKGYPVGEFFLSSMETVNLKPNTYDLIVIQWTAIYLTDDDFVKFLAHCKTALTLRGYIFFKENCSCDERFVVDKEDSSLTRSDAHYKRIFAAAGVEVVKETMQKEWPDDLFKVKMYALR” as the sequence, how does the “soluble on expression in E. coli” value read?
A: soluble

Q: Which “soluble on expression in E. coli” value does the source give for “MSLEEKPKYKRILLKLSGEAFAGEQGYGIDPAFLEYISHEIKNVYDLGVQVAIVIGGGNIFRGFQGKEIGVDRATADYMGMLATVINALALQSALENHVNIPTRVLSAIEMRQVAEPYIRRRAIRHLEKGRIVIFAGGTGNPFFSTDTAAALRAAEIGAEVLIKATKVGGIYDKDPEKYPDAVLIKEISYLEVINMGLKVMDHTALTLCKENEIPIIVLNVKEKGNLRRAVLGEEVGSVVRGEGHHHHHH” here?
A: soluble

Q: For “GPGSMTDALAKPIRVCVLACSYEGSDSELRAYEGDLIQTPQNYFCSEDAQCTFHLELIKKATAYRQIRQLVMSGKFDVFYNQCDGAKDEDRAGVEVVEALEEFKVPYTGAISKYYEMSKPDMKLVAYYYNIATANYIVLAPGDDIESLCGDLQFPCIIKHISGYSSVGMDKSCKVYDMAHLVDRAARFMAEYQFALVEEFVNGDEATILACSDSTQPEGVRVFPPVQVAFPEGEDFKHFQLKWASYEGMKWTQVPQEDPAMQNMIDIARSAFKRMMGGVGYGRIDVRIDRQKNHKVVFLEINPNCGIMYPYGQEGSADWILRLNRGFQQREFAMLQIREAITRCQRERLLYVRRFDPVRGYHLRAAEDISVGTIIFQDECRPVRLCTKPYALQHFSKADYVDFQHNAWPVGRDGHYYALWDHDPAQWRAFNHSCEPNMSFAPMRSLDVVALRNIPKGEELTMDYRQFMDSTMPGFQCNCGTEKCEGFVSPGSLVDSPTAKIASQPTVALRHNIAVRLNPI”, which “soluble on expression in E. coli” value is on record?
A: soluble

Q: Which “soluble on expression in E. coli” value does the source give for “MQSITPPLIAVIGSDASGKSTVCEHLITVVEKYGAAERVHLGKQAGNVGRAVTKLPLMGKSLHKTIERNQVKTAKKLPGPVPALVITAFVARRLLRFRHMLACRRRGLIVLTDRYPQDQIPGAYDGTVFPPNVEGGRFVSWLASQERKAFHWMASHKPDLVIKLNVDLEVACARKPDHKRESLARKIAITPQLTFGGAQLVDIDANQPLEQVLVDAEKAITDFMTARGYH” here?
A: not soluble

Q: Which “soluble on expression in E. coli” value does the source give for “MEKIIITATAESIEQVKALLAAGVDRIYVGEANYGLRLPHNFSYDELRQIAKLVHDAGKELTVACNALMHQDMMDQIKPFLDLMIEIAVDYLVVGDAGVFYVNKRDGYNFKLIYDTSVFVTSSRQVNFWGQHGAVESVLAREIPSAELFTLAENLEFPAEVLVYGASVIHHSKRPLLENYYHFTKIDDEVSRERGLFLAEPGDASSHYSIYEDNHGTHIFINNDIDMMSKLGELYAHGLTHWKLDGIYCPGDDFVAITKLFIQAKTLLEAGQFTQEEAEKLDQAVHAHHPAGRGLDTGFYEFDPKTVK” here?
A: not soluble

Q: For “MLLVMGAHESGLDRARLQSLYEQLVATNEDETEKLAASGHSTGLVASEWARFLAPFDFGYRLVALQRESKRVAAALTRALYGIDTSGASEHDPLWAVEHRVLPVPVTDRLLFCEMRFLLVLALSRRLWMRLERVDPLGQENPFPRDAEIIERVEDLARQSRERLALLAERSPEALNAGKQEAHDCIEDLRTKETRAAEQVAGFAQALGDAALLEKVWHALVDEIAQNRQLNHALLQTLCQWVLMLIGADTEVPSSASCSDE”, which “soluble on expression in E. coli” value is on record?
A: soluble

Q: Which “soluble on expression in E. coli” value does the source give for “MSEPLIVGIRHHSPACARLVKSLIESQRPRYVLIEGPADFNDRVDELFLAHQLPVAIYSYCQYQDGAAPGRGAWTPFAEFSPEWQALQAARRIQAQTYFIDLPCWAQSEEEDDSPDTQDESQALLLRATRMDNSDTLWDHLFEDESQQTALPSALAHYFAQLRGDASGDALNRQREAFMARWIGWAMQQNNGDVLVVCGGWHAPALAKMWRECPQKINKPELPSLADAVTGCYLTPYSEKRLDVLAGYLSGMPAPVWQNWCWQWGLQKAGEQLLKTILTRLRQHKLPASTADMAAAHLHAMALAQLRGHTLPLRTDWLDAIAGSLIKEALNAPLPWSYRGVIHPDTDPILLTLIDTLAGDGFGKLAPSTPQPPLPKDVTCELERTAISLPAELTLNRFTPDGLAQSQVLHRLAILEIPGIVRQQGSTLTLAGNGEERWKLTRPLSQHAALIEAACFGATLQEAARNKLEADMLDAGGIGSITTCLSQAALAGLASFSQQLLEQLTLLIAQENQFAEMGQALEVLYALWRLDEISGMQGAQILQTTLCATIDRTLWLCESNGRPDEKEFHAHLHSWQALCHILRDLHSGVNLPGVSLSAAVALLERRSQAIHAPALDRGAALGALMRLEHPNASAEAALTMLAQLSPAQSGEALHGLLALARHQLACQPAFIAGFSSHLNQLSEADFINALPDLRAAMAWLPPRERGTLAHQVLEHYQLAQLPVSALQMPLHCPPQAIAHHQQLEQQALASLQNWGVFHV” here?
A: not soluble

— the DeepSol protein solubility set
